Measurements reported in patent US20050059087A1 (Amgen, published 2005).
No end group written: not given here.

Tests used:
[1] = biological target: T1, Pep-3, NH2-LEEKKGNYVVTDHG-OH (human); test: KinExA, pep3
T1 construct: Free peptide used in Biacore and KinExA (MW 1590 Da)
T1 peptide: H-LEEKKGNYVVTDHG-OH
Method: All KinExA experiments were conducted at room temperature (˜23° C.). For all equilibrium experiments, antigen was serially diluted into solutions having a constant mAb binding site concentration. For the first 10 titration points the dilutions were 2-fold and the 11th and 12th serial dilutions were 10-fold. The sample flow rate for all experiments was 0.25 mL/min and the labeling antibody flow rate was 0.5 mL/min. […] A sample volume of 250 μL was analyzed for the antibody-controlled experiment. Two or three replicates of each sample were measured for all equilibrium experiments. The equilibrium titration data were fit in a dual curve analysis to a 1:1 binding model using KinExA software (Version 2.4, Sapidyne Instruments).

[2] = biological target: T2, EGFRvIII peptide-OVA (PEP3 14-mer conjugated to ovalbumin) (human, also: conjugated to OVA, chemistry not given here); test: XenoMax screening
T2 construct: also called VIII-pep-OVA; muEGFr
T2 peptide: LEEKKGNYVVTDHC

[3] = biological target: T3, EGFRvIII, full length, expressed by transfected cells (NR6 M, H1477, 300.19/EGFRvIII) (human, UniProt P00533 298-1210); test: FACS on NR6 M cells, antibody at 0.25 µg/ml with SS Alexa anti-human IgG Fab, 37° C. for 1 hr, no glutathione (total cell-associated fluorescence)
T3 construct: Also used here for Western blots of H1477 lysate; also called native EGFRvIII; mutant EGFR
Method: XenoMax derived IgG1 recombinant antibodies were expressed, purified and quantitated as described previously. Antibodies were further assayed for their ability to internalize the EGFRvIII receptor in NR6 M cells. […] The cells were washed with cold 10% FCS in PBS and secondary antibody (SS Alexa antihuman IgG Fab) at 3 μg/ml Fab was added and incubated for 7 mins on ice. The cells were washed with cold 10% FCS in PBS once and then resuspended in cold media. Next, two sets of the triplicate were incubated at 37° C. and the remaining set was incubated at 4° C. for 1 hr. After that the cells incubated at 4° C. and one set of the cells incubated at 37° C. were treated with glutathione (as previously mentioned) for 1 hr on ice. Then the cells were washed and resuspended in 100 μl of cold 1% FCS in PBS and analyzed by FACS. The % internalization was calculated from the geometric mean obtained from the FACS analysis [(mean at 37° C. with glutathione—mean at 4° C. with glutathione)/(mean at 37° C. without glutathione—mean at 4 C with glutathione)].

[4] = biological target: T1, Pep-3, NH2-LEEKKGNYVVTDHG-OH; test: Biacore 2000 SPR, mAb immobilised, pep-3 analyte, 23 C
Method: Standard EDC/NHS and carbohydrate coupling was used to covalently immobilize mAbs to a CM5 sensor chip. To minimize mass transport and crowding mAbs were immobilized at levels that gave a maximum antigen binding response (Rₘₐₓ) of no more than 50-100 RU. A reference flow cell on each chip was activated and blocked with no mAb immobilization to serve as a control.
All Biacore kinetic experiments were conducted at 23° C. […] Antigen samples were randomly injected over the biosensor surface in triplicate at 100 μL/min. Several buffer blanks were injected intermittently over the course of an experiment for double referencing. Each pep-3 concentration and blank were injected for 90 seconds. Dissociation was followed for 13 to 180 minutes.
All Biacore sensorgrams were processed using Scrubber software (Version 1.1f, BioLogic Software, Australia). Sensorgrams were first zeroed on the y-axis and then x-aligned at the beginning of the injection. Bulk refractive index changes were removed by subtracting the reference flow cell responses. The average response of all blank injections was subtracted from all analyte and blank sensorgrams to remove systematic artifacts between the experimental and reference flow cells. CLAMP biosensor data analysis software (Version 3.40, BioLogic Software, Australia) was used to determine kₐ and kd from the processed data sets. Data from all flow cells were globally fit to a 1:1 bimolecular binding model that included a mass transport term. […] The KD was calculated from the quotient kd/kₐ.

[5] = biological target: T3, EGFRvIII, full length, expressed by …; test: cell-based or functional assay
[6] = biological target: T1, Pep-3, NH2-LEEKKGNYVVTDHG-OH; test: Biacore 2000 SPR, mAb immobilised, pep-3 analyte; 95% confidence interval in parentheses
Description: (§1) Two CM5 sensor chips were used in total to immobilize both mAbs. […] Biacore 2000 optical biosensors were used for all studies.
(§2) Next, pep-3 was flowed across the mAb immobilized biosensor surfaces. […] Blank injections were run every sixth sample throughout the injection series for double referencing purposes.

[7] = biological target: T4, wild type EGFR expressed by cells (NR6 Wt, A431, A549, H80, SF-539, A498, SKRC-52) (human, UniProt P00533 25-1210); test: FACS on H80 glioblastoma cells (wild type EGFR only), 30 min on ice, PE goat anti-human IgG; filled histogram = irrelevant IgG
T4 construct: Also used here for Western blots of cell lysates; also called wtEGFR; Wt receptor
Method: The specificity of the purified antibodies was ascertained by performing FACS analysis on a panel of cell lines. H80, a human glioblastoma line, and H1477 (H80-EGFRvIII) that expresses high levels of EGFRvIII, A431, a human epidemoid carcinoma line, and A549, a human lung carcinoma cell line were used as the cell lines. All cell lines were from Dr. Bigner except A431 and A549, which were from ATCC (Rockville, Md., U.S.A.). Cells were incubated on ice with 10 μg/ml of the respective antibody for 30 min., washed in FACS buffer and subsequently incubated with PE-conjugated goat anti-human IgG from Jackson ImmunoResearch (West Grove, Pa., U.S.A.).

[8] = biological target: T1, Pep-3, NH2-LEEKKGNYVVTDHG-OH; test: KinExA, pep3; KinExA (solution equilibrium), pep3; not Biacore
[9] = biological target: T1, Pep-3, NH2-LEEKKGNYVVTDHG-OH; test: Biacore 2000 SPR, mAb immobilised, pep-3 analyte; 95% confidence interval in parentheses
Description: as §1, §2

[10] = biological target: T1, Pep-3, NH2-LEEKKGNYVVTDHG-OH; test: Biacore SPR, mAb immobilised, Pep-3 analyte (single experiment of Example 25)
[11] = biological target: EGFrVIII antigen (ELISA antigen of Examples 15, 17 and 21; form not stated) (human, UniProt P00533 298-645, limits assumed); test: ELISA, 293 cell supernatant on EGFrVIII antigen
Method: Each mutated chain was then transfected with the complementary wild-type chain in 293 cells. Supernatants were then tested for expression and secretion of human IgG antibodies, and for binding to EGFrVIII antigen.

[12] = biological target: T1, Pep-3, NH2-LEEKKGNYVVTDHG-OH; test: Biacore 2000 SPR, mAb immobilised, pep-3 analyte (range between runs)
Description: as §1, §2

[13] = biological target: T5, EGFRvIII-rabbit Fc fusion protein (human; rabbit, UniProt P00533 298-645); test: ELISA, minilipofection supernatant titrated 1:2 on EGFRvIII-Rab Ig Fc fusion protein (1.5 ug/ml)
T5 construct: made in 293F cells; also called EGFRvIII-RbFc; EGFRvIII-Rab Ig Fc fusion protein; not shown: rabbit IgG Hinge-CH2-CH3 (721 bp fragment)
Method: The secretion ELISA tests were performed as follows. […] The plates were washed five times with dH₂O. Recombinant antibodies were titrated 1:2 for 7 wells from the undiluted minilipofection supernatant. The plates were washed five times with dH₂O. A goat anti-human IgG Fc-specific HRP-conjugated antibody was added at a final concentration of 1 μg/mL for 1 hour at RT for the secretion plates and binding plates detected with 1 μg/ml Rb anti Hu Fc for 1 hour at room temperature. The plates were washed five times with dH₂O. The plates were developed with the addition of TMB for 30 minutes and the ELISA was stopped by the addition of 1 M phosphoric acid. Each ELISA plate was analyzed to determine the optical density of each well at 450 nm.

[14] = biological target: T4, wild type EGFR expressed by cells (NR6 …); test: FACS, 10 ug/ml antibody, H80, A431 and A549 cells

B1: SC-EGFRvIII-XG1-131 (antibody, V domains shown)
VH: QVQLVESGGGVVQSGRSLRLSCAASGFTFRNYGMHWVRQAPGKGLEWVAVIWYDGSDKYYADSVRGRFTISRDNSKNTLYLQMNSLRAEDTAVYYCARDGYDILTGNPRDFDYWGQGTLVTVSS
VL: DTVMTQTPLSSHVTLGQPASISCRSSQSLVHSDGNTYLSWLQQRPGQPPRLLIYRISRRFSGVPDRFSGSGAGTDFTLEISRVEAEDVGVYYCMQSTHVPWTFGQGTKVEIK
notes: also called SC131; sc131
Kd [1]: 0.05 pM
binding result [2]: binds

B2: AB-EGFRvIII-XG1-095 (antibody, V domains shown)
VH: QVQLQESGPFLVKPSQTLSLTCTVSGGSISSGGYYWSWIRQHPGKGLEWIGFIYYRGNTYYNPSLKSRVTISVDTSKNQFSLKLSSVTAADTAVYYCARDGYCSRTGCYGGWFDPWGQGTLVTVSP
VL: DIVMTQTPLSSPVTLGQPASISCRSSQSLIHTDGNIYLSWLQQRPGQPPRLLIYKISNRFSGVPDRFSGSGAGTDFTLKISRVEAEDVGVYYCMQGTQFPITFGQGTRLEIK
notes: also called SC95; sc95
FACS Geometric mean (without glutathione, 37° C.) [3]: 22.6 geometric mean
binding result [2]: binds
Kd [4]: 66 nM
koff [4]: 0.0099 s⁻¹
kon [4]: 149000 M⁻¹ s⁻¹
% internalization [5]: 72.4%
FACS Geometric mean, With glutathione 4° C. [5]: 5.13 geometric mean
FACS Geometric mean, With glutathione 37° C. [5]: 17.8 geometric mean

B3: AB-EGFRvIII-XG1K-13.1.2 (antibody, V domains shown)
VH: QVQLVESGGGVVQPGRSLRLSCAASGFTFSSYGMHWVRQAPGKGLEWVAVIWYDGSNKYYVDSVKGRFTISRDNSKNTLYLQMNSLRAEDTAVYYCARDGWQQLAPFDYWGQGTLVTVSS
VL: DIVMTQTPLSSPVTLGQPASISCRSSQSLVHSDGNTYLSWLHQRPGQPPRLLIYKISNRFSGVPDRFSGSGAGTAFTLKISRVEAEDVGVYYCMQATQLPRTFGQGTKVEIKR
Kd [6]: 75 nM
koff [6]: 0.016 s⁻¹
kon [6]: 210000 M⁻¹ s⁻¹
FACS Geometric mean (without glutathione, 37° C.) [3]: 22.1 geometric mean
binding result [7]: no binding (tested: 10 µg/ml)
Kd [8]: 0.025 nM
Kd [9]: 75 nM
koff [9]: 0.016 s⁻¹
kon [9]: 210000 M⁻¹ s⁻¹
Kd [10]: 67 nM
% internalization [5]: 82.5%
FACS Geometric mean, With glutathione 4° C. [5]: 5.38 geometric mean
FACS Geometric mean, With glutathione 37° C. [5]: 19.2 geometric mean

B4: 13.1.2 variant Arg101Glu (antibody, V domains shown)
VH: QVQLVESGGGVVQPGRSLRLSCAASGFTFSSYGMHWVRQAPGKGLEWVAVIWYDGSNKYYVDSVKGRFTISRDNSKNTLYLQMNSLRAEDTAVYYCARDGWQQLAPFDYWGQGTLVTVSS
VL: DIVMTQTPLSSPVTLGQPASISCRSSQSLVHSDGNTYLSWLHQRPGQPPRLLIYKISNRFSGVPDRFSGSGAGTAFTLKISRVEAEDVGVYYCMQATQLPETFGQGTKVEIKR
notes: Mutated chain co-transfected with the complementary wild-type chain in 293 cells; supernatant tested
binding result [11]: no binding

B5: 13.1.2 variant L99T-5.3 (antibody, V domains shown)
VH: QVQLVESGGGVVQPGRSLRLSCAASGFTFSSYGMHWVRQAPGKGLEWVAVIWYDGSNKYYVDSVKGRFTISRDNSKNTLYLQMNSLRAEDTAVYYCARDGWQQLAPFDYWGQGTLVTVSS
VL: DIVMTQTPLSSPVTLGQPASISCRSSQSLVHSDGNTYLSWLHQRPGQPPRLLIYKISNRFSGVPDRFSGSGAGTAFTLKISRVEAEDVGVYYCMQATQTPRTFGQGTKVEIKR
notes: also called Leu99Thr; 99Thr
Kd [6]: 60 nM
koff [6]: 0.013 s⁻¹
kon [6]: 216000 M⁻¹ s⁻¹
Kd [12]: 54 to 70 nM

B6: 13.1.2 variant Arg101Gln (antibody, V domains shown)
VH: QVQLVESGGGVVQPGRSLRLSCAASGFTFSSYGMHWVRQAPGKGLEWVAVIWYDGSNKYYVDSVKGRFTISRDNSKNTLYLQMNSLRAEDTAVYYCARDGWQQLAPFDYWGQGTLVTVSS
VL: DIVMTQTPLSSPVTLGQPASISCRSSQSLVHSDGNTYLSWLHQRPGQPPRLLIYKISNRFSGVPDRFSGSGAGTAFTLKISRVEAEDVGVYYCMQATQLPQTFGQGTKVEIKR
notes: as for B4
binding result [11]: no binding

B7: 13.1.2 variant Arg101Asp (antibody, V domains shown)
VH: QVQLVESGGGVVQPGRSLRLSCAASGFTFSSYGMHWVRQAPGKGLEWVAVIWYDGSNKYYVDSVKGRFTISRDNSKNTLYLQMNSLRAEDTAVYYCARDGWQQLAPFDYWGQGTLVTVSS
VL: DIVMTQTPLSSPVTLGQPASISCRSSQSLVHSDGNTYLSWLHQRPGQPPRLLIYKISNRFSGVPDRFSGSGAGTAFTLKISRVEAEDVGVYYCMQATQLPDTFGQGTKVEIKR
notes: as for B4
binding result [11]: no binding

B8: SC-EGFRvIII-XG1-139 (antibody, V domains shown)
VH: EVQVLESGGGLVQPGGSLRLSCAASGFTFSSYAMSWVRQAPGKGLEWVSAISGSGGSTNYADSVKGRFTISRDNSKNTLYLQMNSLRAEDTAVYYCAGSSGWSEYWGQGTLVTVSS
VL: DIQMTQSPSSLSASVGDRVTITCRASQGIRNNLAWYQQKPGKAPKRLIYAASNLQSGVPSRFTGSGSGTEFTLIVSSLQPEDFATYYCLQHHSYPLTSGGGTKVEIK
notes: also called SC139; sc139
FACS Geometric mean (without glutathione, 37° C.) [3]: 22.6 geometric mean
Titer, antigen binding [13]: > 64 reciprocal dilution
binding result [2]: binds
Kd [4]: 290 nM
koff [4]: 0.00298 s⁻¹
kon [4]: 10300 M⁻¹ s⁻¹
staining relative to ABX-EGF (E7.6.3) [14]: 10%
% internalization [5]: 80.8%
FACS Geometric mean, With glutathione 4° C. [5]: 4.88 geometric mean
FACS Geometric mean, With glutathione 37° C. [5]: 19.2 geometric mean
